The values that follow come from patent US20210079400A1 (CZ BIOHUB SF, published 2021).

For the assay, the target named is T1, BMPR2 (human, on breast cancer cells) (human, UniProt Q13873 27-1038).
T1 construct: whole, on cells; The PDX cells are described as human breast tumor cells; also called BMP Receptor 2
T1 sequence (looked up): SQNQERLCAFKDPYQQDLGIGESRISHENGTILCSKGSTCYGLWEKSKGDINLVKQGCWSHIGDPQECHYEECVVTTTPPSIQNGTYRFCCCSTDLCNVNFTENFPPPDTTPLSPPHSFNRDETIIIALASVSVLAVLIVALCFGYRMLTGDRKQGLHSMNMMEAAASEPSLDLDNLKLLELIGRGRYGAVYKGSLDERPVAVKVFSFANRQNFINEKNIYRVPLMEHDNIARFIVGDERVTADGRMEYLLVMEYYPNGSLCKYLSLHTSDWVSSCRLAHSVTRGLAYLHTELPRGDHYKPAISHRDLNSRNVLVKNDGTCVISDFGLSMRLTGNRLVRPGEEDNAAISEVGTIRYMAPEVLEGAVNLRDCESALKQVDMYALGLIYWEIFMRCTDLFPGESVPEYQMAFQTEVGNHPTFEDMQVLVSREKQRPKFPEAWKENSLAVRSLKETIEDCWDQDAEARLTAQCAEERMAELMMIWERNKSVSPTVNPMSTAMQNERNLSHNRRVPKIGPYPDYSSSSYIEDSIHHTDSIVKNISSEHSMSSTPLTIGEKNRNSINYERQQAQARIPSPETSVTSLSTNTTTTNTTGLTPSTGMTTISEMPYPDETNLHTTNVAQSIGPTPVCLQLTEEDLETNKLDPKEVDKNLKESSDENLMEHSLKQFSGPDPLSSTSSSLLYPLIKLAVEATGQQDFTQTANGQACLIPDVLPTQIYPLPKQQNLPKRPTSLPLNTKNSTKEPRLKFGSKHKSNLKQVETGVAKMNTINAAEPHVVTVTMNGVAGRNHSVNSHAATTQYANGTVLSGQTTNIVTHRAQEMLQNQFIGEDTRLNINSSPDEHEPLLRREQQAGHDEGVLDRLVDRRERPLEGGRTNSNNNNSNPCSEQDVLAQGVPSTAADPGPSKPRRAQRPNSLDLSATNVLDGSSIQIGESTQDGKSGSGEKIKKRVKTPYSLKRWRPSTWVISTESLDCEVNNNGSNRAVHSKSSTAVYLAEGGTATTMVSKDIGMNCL
The assay is described as follows: Proximity Ligation on sorted breast cancer PDX cells. The source says: Next, we examined the interaction of LEFTY-BMPR2 and BMP7-BMPR2 in different subpopulations of breast cancer cells. Tumor cells were isolated from 3 established breast cancer PDXs using flow cytometry. These models were characterized to follow the cancer stem cell paradigm. The cells were sorted based on EpCAM and CD49f cell surface markers. Different protein-protein interactions were quantified by Proximity Ligation and the cells were also simultaneously stained for pSMAD2 or pSMAD5. As shown in FIGS. 14A-14D, in the tumorigenic population the LEFTY-BMPR2 interaction is predominant, whereas the BMP7-BMPR2 interaction is predominant in non-tumorigenic population.

B1: BMP7 (human, endogenous in breast cancer PDX cells) (ligand, UniProt P18075 293-431, looked up)
chain: STGSKQRSQNRSKTPKNQEALRMANVAENSSSDQRQACKKHELYVSFRDLGWQDWIIAPEGYAAYYCEGECAFPLNSYMNATNHAIVQTLVHFINPETVPKPCCAPTQLNAISVLYFDDSSNVILKKYRNMVVRACGCH
B1: the binding result was “binds”.
